Among the data in the NTF2 design screens of Basanta et al. (2020) are protease stability score values, retold here.

The nature of the data set: protease stability score; higher = more stable; yeast display proteolysis, trypsin and chymotrypsin.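 Further: relative to predicted unfolded state with 0 unfolded-like and 1 meaning tenfold more protease.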
On to “DEEHELLEHWLRLFEEAFSTGDWRIMARLIDPNARLEIGEKDHHGREELIKFMLRVDHIDDFRLHEKDRTEIDGRLRMNGNNEVQGTVNGQKRNITIDIHIVVVKVDGRWFVERIRIR”, for which the protease stability score was determined as 1.3.
With “SEEERHWKEFIRMMFEALKTGDETELEKNIDPNVRVHINGQELHGRETASRFMQKHEEDMGFKHFHIDHIHFQGDKIHVHGILWVNGRDIEIHIHLVIVNGRVSLVSRDIREH” the figure was 0.247; with “SEEEKKDHRQWERTFKAFLTGDEDTVHNLADPHVKTEVGDKEYHGRENFSKLISDLGVDHLNLKEIDTVNGRIHLLSEVRFNGQITKFIIIILKVNGQWHVESMEFH”, 0.441.
With “DEVDDEVDKMLEFVLDSWETGDEHINRDLMDPNVLVEAENRTLIGREWAEEFLHSIKKRFPNMRVQLHDMRVVGDKVELDTELRYGEYHNRTHIIALKVNGKWLVEKVHFH” the figure was 1.13; with “DTEQKHVLHLLDEVLHNILTGDWDRIDELMDPNVRVIIGEWDHHGRSYFRELHHLLMLKLGVDHRHIKIQDKDAQGEYAVAHTHLELRIGDKRETYQTRLIVSVVNGKIEEIRIHIG”, 0.877.
With “HERERMLEVALRLFIETMRTGDEKITSELADPNVKIHIGDKTDHGRESFTNFFEEMGADHVNVHDVEVQGDKVKTDIRIQIGDKMVESILYVKKVNGRWLIRSIEIR” the figure was 1.05.
Take “DEDREDVKKYIEDLFHHLETGDFKEIEKNFDPNVRIFIDGRTIHGREEMVRWAEEMRYKLHEVRLHEVETQGEKIHIDLEIDIEIRIGDKRRRIRTRVIIFARKINGRWYVHQTDFR”: the protease stability score is 2.71.
With “DEEEHIERTFKDLFEHALETGDEHLLKRLLDPHARFDINGRDFHGREEVRRFWEETEKKLGIKHSEFRFRRRDHQGDFVRIDLHVIIFIGDKIEHREVEFFLTKIDGVWMIREVRVR” the figure was 0.613; with “NEMHEHAREFLERWKEWMHTGDEETMSKLADPHVRNEYNGVIRVGMEALEKVIRELRVRRTHDHHEHIEFQGDKLHIHVDQESDIEINGVRHRVRIHFDIISVKINGKWTLKSIRLTFH”, 1.41.
The same measure for “EEEKDWSTEVLRLFLEMMATGDWEFLARFLDPHVKLEVDGREFHGREEVSRSLEEHFRKFGADHVEIRLRRIREVDGRLHVDGRLILHIGDKTIERDMQVHSYKIDGQWSIHEVTHK”: 1.45; for “SEEEEILHKMAEDNIQMLQTGDEETLKRLLDPNVRIHIGEFRTHGMEKLSHWLLHLRIRDIRIHSMRIIDGVADIDGTVEIEQGDKRHTVNMRIFIIVINGKNHSFIFRWH”: 1.76.
The same measure for “DEDTLIAKEIAELIIHALLTGDEDILKRLMDPTVKNDVNGVEFHGREILYKLLLEMRIHRVEYTHIDMRIYNGRAEVRIHGKIHVTINGVHDDKERRIDIIIVKINGKWTIESFVVHRL”: 2.53.
“DKQHEDIRRFMEEFLNAVTTGDEDVLSRLHDPHARFRLHQGEKHDEKHGRESWLKWMSEIRIHHIEIEHIDVQGDYTLMIVHSDGTIDGVRMEWESRIILYVYNGKLKEVEVRIH” displayed a protease stability score of 0.691.
The same measure for “SEEHKVAQHAIEIEEHVWHTGDERMLHELFDPDARLIINGQEFHGREELHRFREEMRITHMRTKEVRVQGDKMEIHVRVDVDINGKRTDIRVIIISRKVDGRWINTEIEFR”: 0.734.
With “DEEEKEAVRHWELFMKAELTGDEEKLKNLADPNTRILFNGVEQIGWEELIRKLREIRIKLHDYRVHQVDRIDGRVILDFRVDIILYVGDKFFKHEIRVHVFILKYDGKWILEYEEIK” the figure was 0.736; with “SEREDEMNHSRHLIEDSWRTGDFHITVRLADPHMKVIVGDYEYHGREHLHEVARNADIYHRIHINDWRIIGNKVEIDTEIDGFFNGVPHRTRVEIILSKINGRWILRSIIFR”, 1.31.
With “DETEKHILKLAEMLVRDWITGNEENIMELLDPHAKIDIHIDGRYLEFHGRELITRELIRHYEEIRIHYHFRESESVGEKASINMDVEVHIGDKIVRSHTEVILDIVNGRVRNIHIRWK” the figure was 2.23.
The sequence “SESEEEARKVIERLFRAERTGDEDDVKHLLDPNVKIDWNGRKYHGRDDWAHYISHLGIDHSELIIKHLEYQGDKLRLHGILRYVIGDKTIEEEVFEHMQKINGRWRIREIHIK” registered a protease stability score of 1.64.
In turn, “SEEEEELKRALKIIIEVMLTGDEKTHHELADPHARLEIHQGNYIEHQHGREIVDKVLRDWIEKLGIDHLHLERVDKQGNKLFVHVHVKVGDKHSKLDIVASKVDGRWVLHEVRIIDE” showed a protease stability score of 1.84.
“SEDERVAFELVVIWSEALITGDEHTSIELLDPNTRIIFNGRDRHGRTFLQEWMKQLRVERIRIHIHHINLQGDKLKVFSELRFVGNVDGVRDEIKTEVVVFLDKIDGRWIVSHIDVH” yielded a protease stability score of 2.22.
For the sequence “DEQTELEDKMRELIMRTWDTGDEKLLQELADPDARAHFNINGQTDSRHGREEILRLFIKLWEILGVDHLHLQHVSVIDGKFHIHQEVRYDGKVTFLHIHVWIVNGRNRQFNVHIEHR”, the protease stability score stood at 0.407.
Sequence “SEEDKHLLHLMHLFLHWFDTGDEEQFWHYADPHVRMSVNGVHLHGRETVMRQISRTLKEWRVDDRRIHDSHTVNGVVHQDGRVDGEFNGKRDTREYYLIIVIFNGRIHSVEIHIK” returned a protease stability score of 1.46.
The same measure for “DLEHEITRRVLWELTESSKTGDFDRRLELLDPHARVNIDGKDFHGREEVEYLLREMEKFWGHDRVYLDVKEIEIQGDKIDVDSELTINGKKRKARLIVVKVNGRWVIHSIEVE”: 1.04.
For the sequence “DEQEKELEEFLKLLLYAIWTGDEDTITELADPNVRMHIGDKLNHGWEILSDRLTEIRSDIHDFKLRHIETIGNKMTLFGDLNGQINVGDKEKRTIIHMILHVHKIDGRWLLTHIHFD”, the protease stability score is 0.265.
The same measure for “SEDEKLFRLSIEIYLRVSRTGDEHMAHEYADPHVRLRIGDKEFHGREEFIKWVNELRVEELRLKEVRVIGDKAHLRTEVHTYIGDKEINYEMEIHQTKIDGKWFLREMKLK”: 0.486; for “DEDQEIVERFTSLINHLILTGDEEEMKKLLDPNARWIYGDKHIHGRDEFIELLRQIKNVKTRFYIRHIDVINGKLVMHVEIELEFNGKRDHLRQIIISEKVDGRWRAKEFETR”: 0.66; for “DHEKEVAERIMRLLFHQLETGDWRLESKMADPNVRLNFNGVHLHGMETSVKWLEELRIHSFRIRDMRIDIINGVAVADNDTETEITFDGVRIRTRTHLHIFVSKFDGRWHVSEIEIRIR”: 0.094.
With “DEEDEHFEEVLRRTRHVWKTGDWRRLHELFDPNTRIHVNGRDVIGREEASRIIYEMLRQADHFHYRIRRFEIQGDKIHSEIEVIIIVNGRLIRLDTHVVAIKVNGRWVIESEEIR” the figure was 1.48.
The sequence “DEEKKLMLESMKQTLDKIFTGDFDSTAEYLDPHARYIIGDKTLHGMERWKEFLDRFDHVHIHDVKLHSVRIIDGVAILDGRIDTEIIINGVRIRETVEVQIVIVKVNGRWKDERVEFK” had a protease stability score of 0.13.
With “DELDHEIRHVLHIIHHLLLTGDEEIFEEMADPDPRLDLVYGDKKIHVHGWKNILDMLKRLLDHWRIRHVEIKRITTQGNKAHLDTRSNLIINGRELIVIIELNVVTFNGVMKDMRIKIV” the figure was 1.65; with “DEEERERKHIAEEFAHELETGDEERFVELADPNVRSDINGKQYHGRDRFRDWQEQWHEKVKNLRFEIERWRVIGDFVRIDVRIRIDGRRHNVEIIQVVVNGRITFLEIRVK”, 0.799; with “DHMERLLKHVARLFIHALHTGDESILTDLLDPNVRVHIHIGDKEIRLHGREHVRHYLEHELTHWRTEFHLTHFDIVGNKFENHTNVIIRIDGVEIRLDRRHEVVLYDGKIEEVIVRVE”, 2.37.
Sequence “SEEEESIHEAQKVFLKIIMTGDWEEIARRLDPDVRLHIGNKKVHGREEAIEFFRKFLEEIRIHDEELKEFSSIDGRVHIRGEIDGTINGVRDRVEVHNVIWKFNGRWFISFREER” came in with a protease stability score of 1.36.
The same measure for “SSDKRDAHFAMDLYYEIHLTGDEDRWRHMADPNVRLHVGEKDFHGRELWFKFMHDFGLDKIEIELKDIEVQGEKVHLDGIIRFDGREHKVEVDLRKINGRWIIDEERYK”: 1.13.
As for “DEHEELMEEFMRKILHAWLTGDWDLINEMADPDVRTNINGRNEIGREEFEKLWQEIRFRRFDLKRWHVFNGVIHIDGHIDGEVNGRRTKRDVLIRLFIFNGRLKKEEVEYL”, the protease stability score stood at 1.55.
In the case of “EDEKEFIERFARILLHARFTGDWKTLLELMDPNARITIEIGDKILEFHGMEQWIRENDKTEKKIKNITIHIEDMRIVNGVLEVDIHVHIGDKKYDFRIIVVVINGKVRQLEIKVE”, the protease stability score turned out to be 2.08.
With “SEHEERMRRYIEIFIHNLITGDEHMINRMADPSTIVIINGVRLWGREEFSKWVRRERERIDHIEMRIEHLDVQGDKATVDVRVEEHVGDKSEERSLIIRLIVVNGRSHSMHFEVR” the figure was 1.59.
In the case of “SELEEFARKLMHIYSFAFLTGDWRLHEHMLDPHVRQEQGDKELHGMEDLERLMKRIDHVKHVEMLIEHLEVQGDKVRAHGKWRLIGTVNGQDVDVTIRAHFNIEKFDGVWVVREVRLL”, the protease stability score amounted to 2.58.
The same measure for “SKLEEDAHKMLDKILHNIRTGDEESEHRLADPEVKFHIGDKTFHGMSLVSKLLLHLRIRTERIENVNIRVINGVAEVEMRGVRDGEFNGVRVQVTVEEHFIIDKINGRWIIREIHVHII”: 1.29; for “EEEERILFEEMEHLLHNFLTGNEEHLHELIDPRVRILIGDKDIHGMELHANIWKKVKGIKEEYHVHRVKLYNGRNEMDTEVRRVIDGQELSVRTKIIFDVVDGKLKSAEIRFH”: 0.771; for “DEREERNKQISELLWHALLTGNWEMLQHLADPHVRVDINGVDLHGRELLVKHLKKFGVDHSRHHDLEIQGEKLIIRGEVEVNGKRIDVEIRIEVIDGKVKHVEVHEN”: 1.24.
The same measure for “DEHEHLALRMTTRFTDMLRTGDWENMLRYFDPDARIIIDGRKHHGRERMHEIWREIRVTDLRINRERVRVQGDFVINHIDGEEDVEIGDKRISTRSIIILVVHKIDGRWHMKELEINIV”: 0.796; for “SEEEEEIEKMVRHMIHNLLTGNEDVIDKFVDPHVQLHINGRDIHGRENIRREIRRTLEELGVDHWIVHHIEIRRVGDKAIAINHGTIVINGRNVDTEFIFWLHKVNGRWMVHSYEIRIR”: 1.4; for “NELEKWVEQATREILRVMETGDPNETEKLIDPHVRREQGEFIYHGWENITHFMEHARFERYKLHDVDLQGDYVNLNGRLDGVYNGKKERTEVEFYVLKINGRWHVTSMHVH”: 1.28.
The same measure for “THEEHFDERVARHLHENFLTGNEDIFEHLADPHTRIIIVQGDKMIHFHGWEWFAMKMLEDLHRIKGIRITLRHINIQGDKWILEMKVDIGDKELETEIIIHVINGKIESVRIIIR”: 1.35; for “DEEDEKTRRMAELWSKWKSTGDEELFHHFADPRTRLEIGDKKYHGRDLISKIWFKERKEIRSDINIKDVDVFNGVAILHGTLILEINGQRDSIDVTFHIVLINGRIHEVRVEWR”: 0.73.
The sequence “LEEKDEVHHIVDRLFKVLMTGDFEILRHLLDPDDRLKIDINGRQIDLHGREEVVHWVIHELRELRIELRVKRVHHTENHYVADTRLHIRQGDKEFVHETEWRILIIDGKNKEWRIIVH” displayed a protease stability score of 1.38.
